We go through one substance from patent US20260015631.

In this series the test system is CyCAST TnsD (with TnsAB, TnsC) (Cyanothece sp. PCC 7425). As to the kind of experiment: cell_activity. The settings on record: without TniQ; 0.0006% with TniQ; E. coli.

In the case of pTarget with tRNA-Leu, the activity worked out at 0.008 % insertion.
